This is an account of results in patent publication US20220403048A1 (CANCER RESEARCH TECHNOLOGY, published 2022).

As usually defined, the IC50 is the concentration needed to halve the response being measured. By EC50 (read off the curve) is commonly meant the concentration needed to bring the measured effect to its halfway point. As a reminder, the Kd is a measure of binding affinity in units of concentration. What is called koff is the rate constant with which the complex falls apart. The kon is the second-order rate constant of association.

Assay [1] concerns the target T1, biotinylated recombinant human trimeric ARG1 enzyme (Avi-huARG1-His10) (human, UniProt P05089 1-322, biotinylated in HTRF and streptavidin BLI assays).
T1 construct: also called Human ARG1; recombinant ARG1
T1 sequence: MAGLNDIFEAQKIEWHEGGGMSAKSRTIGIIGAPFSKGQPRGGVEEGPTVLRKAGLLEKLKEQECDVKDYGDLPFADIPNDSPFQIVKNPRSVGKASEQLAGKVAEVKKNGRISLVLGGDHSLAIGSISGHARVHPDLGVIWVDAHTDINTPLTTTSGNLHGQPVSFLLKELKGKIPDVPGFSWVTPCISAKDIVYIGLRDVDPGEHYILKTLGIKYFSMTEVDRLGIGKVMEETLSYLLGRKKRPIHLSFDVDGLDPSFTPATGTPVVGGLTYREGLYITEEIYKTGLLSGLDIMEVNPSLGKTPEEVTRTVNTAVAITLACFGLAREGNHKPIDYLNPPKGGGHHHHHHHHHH
Briefly: HTRF direct binding assay, biotinylated recombinant human trimeric ARG1.

Assay [2] addresses T2, biotinylated recombinant cynomolgus monkey trimeric ARG2 enzyme (Avi-cynoARG2-His10) (cynomolgus monkey, UniProt P78540 23-354 (human entry), biotinylated).
T2 construct: also called cynomolgus ARG2
T2 chain: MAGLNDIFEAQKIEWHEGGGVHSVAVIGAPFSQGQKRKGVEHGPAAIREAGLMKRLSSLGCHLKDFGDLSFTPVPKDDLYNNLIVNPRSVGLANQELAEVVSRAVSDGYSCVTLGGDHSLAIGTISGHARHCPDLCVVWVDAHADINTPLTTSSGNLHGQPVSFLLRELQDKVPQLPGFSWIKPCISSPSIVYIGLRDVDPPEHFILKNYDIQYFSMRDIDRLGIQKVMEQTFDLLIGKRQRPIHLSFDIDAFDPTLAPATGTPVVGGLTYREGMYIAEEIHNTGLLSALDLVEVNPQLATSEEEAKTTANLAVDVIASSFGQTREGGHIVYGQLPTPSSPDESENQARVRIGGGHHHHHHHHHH
Kind of assay: HTRF direct binding assay, biotinylated recombinant cynomolgus trimeric ARG2, streptavidin cryptate and anti-c-myc-XL665, Delta F %.

The target of assay [3] is T3, recombinant human trimeric ARG2 enzyme (construct not given) (human, UniProt P78540 23-354).
T3 sequence (looked up): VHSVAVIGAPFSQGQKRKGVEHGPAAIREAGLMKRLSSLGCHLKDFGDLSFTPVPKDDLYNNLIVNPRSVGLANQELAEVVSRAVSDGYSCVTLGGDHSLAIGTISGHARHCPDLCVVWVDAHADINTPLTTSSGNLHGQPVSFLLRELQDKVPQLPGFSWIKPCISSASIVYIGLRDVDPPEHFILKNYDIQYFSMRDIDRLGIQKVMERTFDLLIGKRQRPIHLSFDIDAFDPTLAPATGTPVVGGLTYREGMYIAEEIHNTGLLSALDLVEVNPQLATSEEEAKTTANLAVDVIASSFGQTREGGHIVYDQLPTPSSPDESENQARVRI
Briefly: cell-based or functional assay.

In assay [4] the target is T4, biotinylated recombinant human trimeric ARG2 enzyme (Avi-huARG2-His10) (human, UniProt P78540 23-354, biotinylated).
T4 construct: also called avi-Arg2-His10; bio-ARG2
T4 chain: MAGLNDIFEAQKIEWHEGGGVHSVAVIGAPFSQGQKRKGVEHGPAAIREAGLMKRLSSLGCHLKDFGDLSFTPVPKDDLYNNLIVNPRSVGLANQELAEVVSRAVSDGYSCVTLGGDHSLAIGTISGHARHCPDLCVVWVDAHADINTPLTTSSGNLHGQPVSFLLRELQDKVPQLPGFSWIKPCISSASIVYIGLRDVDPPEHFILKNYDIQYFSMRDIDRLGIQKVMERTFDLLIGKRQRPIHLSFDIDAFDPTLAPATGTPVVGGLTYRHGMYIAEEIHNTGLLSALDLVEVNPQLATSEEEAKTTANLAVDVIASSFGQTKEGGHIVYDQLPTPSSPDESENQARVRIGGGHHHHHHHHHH
Kind of assay: HTRF epitope competition, scFv titrated, competitor C0020187 IgG, on biotinylated human trimeric ARG2.

Assay [5] deals with T4, biotinylated recombinant human trimeric …. Briefly: HTRF direct binding assay, biotinylated recombinant human trimeric ARG2, streptavidin cryptate and anti-c-myc-XL665, % Delta F. On the procedure:
In this assay, binding of unpurified scFv to recombinant human trimeric ARG2 enzyme was assessed by measuring the fluorescence resonance energy transfer (FRET) between the c-myc tagged scFv and the biotinylated enzyme using streptavidin cryptate and anti-c-myc-XL665 detection reagents (CisBio International, France; cat: 610SAKLB and 61 MYCXLB respectively). Selection outputs were screened as unpurified bacterial periplasmic extracts containing scFv, prepared in 200 mM tris buffer pH 7.4, 0.5 mM EDTA and 0.5 M sucrose. 5 μl of unpurified scFv samples were added to a Greiner® 384 well assay plate (Greiner Bio-one, UK; cat: 784076). This was followed by the addition of 5 μl of 12 nM recombinant human trimeric ARG2 enzyme, 5 μl of 6.67 nM streptavidin cryptate and 5 μl 40 nM anti-c-myc-XL665. […] Assay plates were incubated overnight at 4° C. prior to reading time resolved fluorescence on a Pherastar plate reader ([…]) using an excitation wavelength of 320 nm and measuring the emission at 620 nm and 665 nm (100 flashes).
The ARG2 binding profile of each purified scFv was determined by testing a dilution series of the purified scFv in the HTRF™ assay described in section 1.4, substituting the unpurified scFv periplasmic preparation with the purified scFv. […]

Assay [6] has as its target T1, biotinylated recombinant human trimeric …. Kind of assay: BLI (OctetRED), biotinylated ARG1 on streptavidin tip. How it is done:
(§1) The affinity of binding between the Fab of C0020187 and human ARG2, cynomolgus ARG2 and human ARG1 was estimated using assays in which the biotinylated ARG antigen was captured on a streptavidin sensor tip. A fresh sensor tip was used for each measurement and no regeneration was used. A series of dilutions of the C0020187 Fab (3.25-240 nM) were individually placed in contact with the ligand surface for a sufficient amount of time to observe sensorgrams that could be fitted to an appropriate binding model with confidence (typically 5 minutes), followed by an appropriate length of dissociation time (typically 10 minutes). Blank reference (0 nM Fab) data were subtracted from each dataset to reduce the impact of any buffer artefacts or non-specific binding effects. An appropriate binding model was then fitted simultaneously to the data from each analyte titration using the Octet Evaluation software.

Assay [7] deals with T4, biotinylated recombinant human trimeric …. Kind of assay: BLI (OctetRED), biotinylated ARG on streptavidin tip, Fab as analyte, 1:1 fit. On the procedure:
(§2) An Octet Kinetics Buffer (PBS containing 0.01% BSA and 0.002% Tween20) is typically used as the diluent buffer for the analyte samples and as the flow buffer during the dissociation phase. The experimental data is recorded over time as shift in interference pattern (nm) over time, which is directly proportional to the optical thickness at the biosensor tip, which in turn is an approximate measure of the mass of analyte bound. The proprietary Octet Data Analysis software package can then be used to process data and fit binding models to the data sets. Returned association (kₐ, M⁻¹ s⁻¹) and dissociation (kd, s⁻¹) rate constants allow calculation of dissociation (KD, M) affinity constants.
as §1
(§3) Example results for C0020187 are shown in Table 9, showing the association rate constants (kₐ), dissociation rate constants (kd) and dissociation constants (KD). These parameters were derived from a 1:1 binding fit to the data.

For assay [8], the target named is T2, biotinylated recombinant cynomolgus …. Described as above. How it is done:
as §2, §1, §3

B1: C0020065 scFv (scFv, V domains shown)
VH: GVNLRESGGGVVQPGRSLRLSCAASGFTFSSYAMHWVRQAPGKGLEWVAVISYDGSNKYYVDSVKGRFTISRDNSKNTLYLQMNSLRAEDTAVYYCARDSSQLWFDYWGRGTLVTVSS
VL: QSVVTQPPSVSGAPGQRVTISCTGSSSNIGTGYDVHWYQQLPGTAPKLLIYGNSNRPSGVPDRFSGSKSGTSASLAITGLQAEDEADYYCQSYDSSLSGSVVFGGGTQLTVL
notes: c-myc tagged scFv
On to B1, for which the values for the binding result in assay [1] and in assay [2] were “no binding (tested: log M -6 (1e-6 M))” and “binds”, respectively.

B2: C0020187 scFv (scFv, V domains shown)
VH: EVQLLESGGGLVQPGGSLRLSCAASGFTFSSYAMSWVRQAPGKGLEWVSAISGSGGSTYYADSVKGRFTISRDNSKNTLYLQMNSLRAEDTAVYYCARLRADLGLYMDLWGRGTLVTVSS
VL: QSVLTQPPSVSAAPGQKVTISCSGSSSNIGNHYVSWYQQLPGTAPKLLIYDNSERPSGIPDRFSGSKSGTSATLGITGLQTGDEADYYCGTWDSSLSALVFGGGTKLTVL
notes: c-myc tagged scFv; also called parent C0020187 scFv
As to B2, in assay [3], the “Trimeric human ARG2 EIA IC50” value came out at 964 nM. For the same molecule, the binding result in assay [1] is on record as “no binding (tested: log M -6 (1e-6 M))”. Besides, the concentration for half-maximal inhibition (IC50) in assay [4] was 1580 nM. For the same molecule, the “EC50 (read off the curve)” value in assay [5] is roughly 20 nM; in assay [2], roughly 10 nM.

B3: C0020187 Fab (Fab, V domains shown)
VH: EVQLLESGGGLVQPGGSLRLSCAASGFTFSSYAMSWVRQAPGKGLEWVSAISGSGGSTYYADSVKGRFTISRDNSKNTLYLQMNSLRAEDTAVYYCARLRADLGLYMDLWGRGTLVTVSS
VL: QSVLTQPPSVSAAPGQKVTISCSGSSSNIGNHYVSWYQQLPGTAPKLLIYDNSERPSGIPDRFSGSKSGTSATLGITGLQTGDEADYYCGTWDSSLSALVFGGGTKLTVL
notes: Human Fab (CH1 and part of the hinge; light chain constant domain); also called Fab of C0020187
With B3, the binding result in assay [6] is reported as “no binding (tested: 3.25-240 nM Fab)”. Further, in assay [7], the Kd stood at 8.35 nM, the koff was 0.000577 s⁻¹ and the association rate constant (kon) amounted to 69200 M⁻¹ s⁻¹. In assay [8], the dissociation constant Kd was 6.26 nM, the koff is 0.000631 s⁻¹ and the kon was determined as 101000 M⁻¹ s⁻¹.
